In test [1] the target is T1, carboxyl terminal domain (CT) of Cx43 (Rattus norvegicus, UniProt P08050).
T1 construct: GST (N, cleaved yes); made in house; host or cells: E. coli BL-21
Briefly: Peptide binding to Cx43CT determined using surface plasmon resonance (SPR). Particulars: for SPR respons: immobilised recombinant Cx43CT; for SPR data normalised on Mw: value = (SPRrespons*100)/Mw. As for the experimental part: 277(39):36706-36714 (2002), which is hereby incorporated by reference in its entirety. Briefly, cDNA derived from rat Cx43 was inserted into pGEX-6P-2 (Amersham) and expressed in E. coli (BL-21). The resultant GST-fusion protein was cleaved from the GST PreScission Protease® (Amersham Biosciences). The recombinant product after cleavage contained the sequence 255-382 of rCx43 preceded by four additional amino acids (GPLG). Protein concentration was measured using the Bio-Rad DC Protein Assay. Protein purity was assessed by SDS-PAGE.
Recombinant Cx43CT was covalently bound to a carboxylmethyl dextran matrix (Salamon et al., “Surface Plasmon Resonance Spectroscopy as a Tool for Investigating the Biochemical and Biophysical Properties of Membrane Protein Systems. II: Applications to Biological Systems,” Biochim. Biophys. Acta 1331(2):131-152 (1997), which is hereby incorporated by reference in its entirety). Specific peptides were presented and, when feasible, dissociation constants (KD) were calculated from the time course of binding and unbinding of the ligand, using a 1:1 (Langmuir) association and dissociation kinetic model (Biacore software package). In both phases (association and dissociation), the first 5-8 seconds of recording were not included in the fit, to avoid artifacts resulting from peptide distribution within the flow cells (Lang et al., “Surface Plasmon Resonance as a Method to Study the Kinetics and Amplitude of Protein-protein Binding,” in PRACTICAL METHODS IN CARDIOVASCULAR RESEARCH 936-947 (Stefan Dhein, Friedrich Wilhelm Mohr & Mario Delmar eds., 2005), which is hereby incorporated by reference in its entirety).
The peptides shown in table 2 and 3 were tested for binding to the carboxyl terminal domain (CT) of Cx43 using Surface Plasmon Resonance (“SPR”). SPR is a method that was used to identify the original RXPE sequence (Shibayama et al., “Identification of a Novel Peptide that Interferes with the Chemical Regulation of Connexin-43,” Circ. Res. 98:1365-72 (2006)). The amplitude of the response is also a function of the mass of the ligate, and the normalized data according to the individual peptide Mw's are shown in table 3.

Test [2] concerns the target T2, Cx43-expressing N2a cells (Rattus norvegicus, UniProt P08050).
T2 construct: expressed in transfected cells; host or cells: N2a (neuroblastoma) cells
Description: Dual patch clamp: octanol-induced uncoupling, junctional conductance between cell pairs. It is filed as cell-based. The method, then: Experiments were conducted on N2a (Neuroblastoma) cells. Cx43 was expressed either in a lac-switch stable system (induced by 0.1-1.0 mM of IPTG (Zhong et al., “LacSwitch II Regulation of Connexin43 cDNA Expression Enables Gap-junction Single-channel Analysis,” Biotechniques 34(5):1034-1034, 1041-1044, 1046 (2003), which is hereby incorporated by reference in its entirety)) or transiently using an IRES plasmid coding for eGFP (Seki et al., “Modifications in the Biophysical Properties of Connexin43 Channels by a Peptide of the Cytoplasmic Loop Region,” Circ. Res. 95(4):e22-e28 (2004); Seki et al., “Loss of Electrical Communication, but Not Plaque Formation, After Mutations in the Cytoplasmic Loop of Connexin43,” Heart Rhythm. 1(2):227-233 (2004), which are hereby incorporated by reference in their entirety). M257 (a mutant of Cx43 truncated at amino acid 257 (Morley et al., “Intramolecular Interactions Mediate pH Regulation of Connexin43 Channels,” Biophys. J. 70(3):1294-1302 (1996), which is hereby incorporated by reference in its entirety)) was transiently expressed in N2a cells also using an eGFP-containing IRES plasmid. Cells were placed on the stage of an inverted microscope equipped for epifluorescence (Nikon Diaphoto200, Filter: 520 to 560 nm). Junctional current (I) was recorded from eGFP-positive cell pairs in a dual-whole-cell voltage clamp configuration (holding potentials: −40 mV; transjuctional voltage, Vj, +[…]; step duration, 10-30 seconds). Patch pipettes were filled with a cesium-containing solution (Seki et al., “Modifications in the Biophysical Properties of Connexin43 Channels by a Peptide of the Cytoplasmic Loop Region,” Circ. Res. 95(4):e22-e28 (2004); Seki et al., “Loss of Electrical Communication, but Not Plaque Formation, After Mutations in the Cytoplasmic Loop of Connexin43,” Heart Rhythm. 1(2):227-233 (2004), which are hereby incorporated by reference in their entirety). For the low pH experiments, HEPES was replaced by MES (10 mM). Pipette resistance was 4.0-6.0MΩ. Synthetic peptides were diluted in the pipette solution to a final concentration of 0.1 mM. During recording, cells were kept at room temperature in a cesium-containing solution (Seki et al., “Modifications in the Biophysical Properties of Connexin43 Channels by a Peptide of the Cytoplasmic Loop Region,” Circ. Res. 95(4):e22-e28 (2004); Seki et al., “Loss of Electrical Communication, but Not Plaque Formation, After Mutations in the Cytoplasmic Loop of Connexin43,” Heart Rhythm. 1(2):227-233 (2004), which are hereby incorporated by reference in their entirety). For some experiments, octanol (2.0 mM) was superfused during recording. Data acquisition and recording, and criteria for single channel detection were as reported in Seki et al., “Modifications in the Biophysical Properties of Connexin43 Channels by a Peptide of the Cytoplasmic Loop Region,” Circ. Res. 95(4):e22-e28 (2004) and Seki et al., “Loss of Electrical Communication, but Not Plaque Formation, After Mutations in the Cytoplasmic Loop of Connexin43,” Heart Rhythm. 1(2):227-233 (2004), which are hereby incorporated by reference in their entirety.
Compounds were tested for their ability to interfere with octanol-induced uncoupling. Compounds are tested for their ability to interfere with acidification induces uncoupling.
Experiments were modeled after those described in Shibayama et al (2006). Junctional conductance between Cx43-expressing N2a cell pairs was assessed using conventional dual patch clamp. Peptides were diluted in the patch pipette solution and the cells will be exposed either to octanol or to a low intracellular pH. Control experiments were carried out in the absence of the compound. The results are shown in FIGS. 3A-E, which are graphs of the time course of octanol-induced changes in coupling recorded from Cx43-expressing N2a cells. FIGS. 3A-E relate to peptides 2517, 2518, 2529, 2520 and 2624 respectively. […]

“Also recorded” adds a separate entry of the source.

T2 sequence (P08050 whole entry): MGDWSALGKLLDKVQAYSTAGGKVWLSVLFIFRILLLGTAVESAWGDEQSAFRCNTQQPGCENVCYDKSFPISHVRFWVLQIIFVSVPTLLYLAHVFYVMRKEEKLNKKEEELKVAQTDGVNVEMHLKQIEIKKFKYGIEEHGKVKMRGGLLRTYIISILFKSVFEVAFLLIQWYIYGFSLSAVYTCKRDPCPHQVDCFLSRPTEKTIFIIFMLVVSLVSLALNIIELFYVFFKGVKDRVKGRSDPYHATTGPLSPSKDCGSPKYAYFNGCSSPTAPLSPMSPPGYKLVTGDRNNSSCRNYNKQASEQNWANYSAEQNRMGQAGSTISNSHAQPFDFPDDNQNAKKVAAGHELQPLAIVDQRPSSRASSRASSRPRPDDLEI
T1 sequence (P08050 255-382): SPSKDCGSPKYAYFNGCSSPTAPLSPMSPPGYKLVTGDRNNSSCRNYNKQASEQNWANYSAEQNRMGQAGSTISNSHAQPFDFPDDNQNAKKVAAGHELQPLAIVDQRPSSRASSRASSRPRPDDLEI

As for “Ac-Arg-Arg-Asn-Tyr-Ala-Val-Pro-Phe-Arg-Arg-Asn-Tyr-NH2 (Ac-RRNYAVPFRRNY-NH2) [Compound 2511]”, the SPR respons in test [1] (peptide 25 uM) is recorded as 16.2 arbitrary units; in test [1] (peptide 100 uM), 90.5 arbitrary units; in test [1] (peptide 250 uM) it was 214.2 arbitrary units; in test [1] (peptide 500 uM), 389.6 arbitrary units; in test [1] (peptide 1 mM) it was 691.5 arbitrary units.
With “Ac-Arg-Arg-Asn-Tyr-Gly-Gly-Gly-Arg-Arg-Asn-Tyr-NH2 (Ac-RRNYGGGRRNY-NH2) [Compound 2509]”, the SPR respons was 21.5 arbitrary units in test [1] (peptide 25 uM); 62.5 arbitrary units in test [1] (peptide 100 uM); 148.5 arbitrary units in test [1] (peptide 250 uM); 280.8 arbitrary units in test [1] (peptide 500 uM); 478.9 arbitrary units in test [1] (peptide 1 mM).
Turning to “Ac-Arg-Arg-Asn-Tyr-Gly-Gly-Gly-Ser-Ala-Val-Pro-Phe-Tyr-Arg-Arg-Asn-Tyr-NH2 (Ac-RRNYGGGSAVPFYRRNY-NH2) [Compound 2508]”, the SPR respons stood at 31.1 arbitrary units in test [1] (peptide 25 uM); 121.9 arbitrary units in test [1] (peptide 100 uM); 284.6 arbitrary units in test [1] (peptide 250 uM); 546.8 arbitrary units in test [1] (peptide 500 uM); 1024.5 arbitrary units in test [1] (peptide 1 mM).
For “Ac-Arg-Arg-Asn-Tyr-Gly-Gly-Gly-Ser-Ala-Val-Pro-Phe-Tyr-Ser-His-Ser-Arg-Arg-Asn-Tyr-Gly-Gly-Gly-Ser-Ala-Val-Pro-Phe-Tyr-Ser-His-Ser-Arg-Arg-Asn-Tyr-Gly-Gly-Gly-Ser-Ala-Val-Pro-Phe-Tyr-Ser-His-Ser-Arg-Arg-Asn-Tyr-NH2 (Ac-RRNYGGGSAVPFYSHSRRNYGGGSAVPFYSHSRRNYGGGSAVPFYSHSRRNY-NH2) [Compound 2372]”, the “Ability to re-open gap junctions closed by the uncoupler (revert uncoupled cells to coupled)” value in test [2] (0.1 mM peptide in internal pipette solution, octanol superfusion) is “able to revert uncoupled cells to couple cells; also recorded: re-open gap junctions that were initially closed by the uncoupler”. Further, in test [2] (0.1 mM peptide in internal pipette solution, octanol superfusion, Vj 60 mV), the “Effect on octanol-induced uncoupling” value is “prevented octanol-induced uncoupling”. Further, in test [2] (0.1 mM peptide in pipette, Gj relative to value before octanol, N=7 pairs), the “Average junctional conductance (Gj) as a function of time after onset of octanol” value is “a slight decrease in Gj was apparent; also recorded: decreased at first and then increased”. Besides, the “Decrease in Gj three minutes after onset of octanol” value in test [2] (junctional current traces of a cell pair, peptide in internal pipette solution) is reported as “no or only a minor decrease in Gj”. The “Cell pairs that remained coupled / uncoupled following onset of octanol superfusion” value in test [2] (seven cell pairs, peptide in pipette, uncoupling = zero junctional current at 60-mV pulse) is “none of the cell pairs exposed to 2372 uncoupled”.
“Ac-Arg-Arg-Asn-Tyr-Gly-Gly-Ser-Ala-Val-Pro-Phe-Tyr-Ser-His-Arg-Arg-Asn-Tyr-NH2 (Ac-RRNYGGSAVPFYSHRRNY-NH2) [Compound 2510]”: the SPR respons in test [1] (peptide 25 uM) is given as 40.3 arbitrary units; in test [1] (peptide 100 uM), 176.2 arbitrary units; in test [1] (peptide 250 uM), 331.5 arbitrary units; in test [1] (peptide 500 uM) it was 643.3 arbitrary units; in test [1] (peptide 1 mM), 1188 arbitrary units.
With “Ac-Arg-Arg-Asn-Tyr-NH2 (Ac-RRNY-NH2) [Compound 2498]”, in test [1] (peptide 500 uM), the SPR respons was found to be 50.9 arbitrary units and the “SPR data normalised on Mw” value was found to be 7.9. In addition, in test [1] (peptide 1 mM), the SPR respons is given as 91 arbitrary units and the “SPR data normalised on Mw” value stood at 14.0.
For the substance “Ac-Arg-Arg-Asn-Tyr-Ser-Ala-Val-Pro-Phe-Tyr-Ser-His-Ser-Arg-Arg-Asn-Tyr-NH2 (Ac-RRNYSAVPFYSHSRRNY-NH2) [Compound 2506]”, the SPR respons was 51.7 arbitrary units in test [1] (peptide 25 uM); 117.2 arbitrary units in test [1] (peptide 100 uM); 327 arbitrary units in test [1] (peptide 250 uM); 561.8 arbitrary units in test [1] (peptide 500 uM); 1172.8 arbitrary units in test [1] (peptide 1 mM).
As to “Ac-Arg-Arg-Asn-Tyr-Ser-His-Ser-Arg-Arg-Asn-Tyr-NH2 (Ac-RRNYSHSRRNY-NH2) [Compound 2507]”, the SPR respons in test [1] (peptide 25 uM) came out at 42.3 arbitrary units; in test [1] (peptide 100 uM) it was 113.5 arbitrary units; in test [1] (peptide 250 uM) it was 254.2 arbitrary units; in test [1] (peptide 500 uM), 438.5 arbitrary units; in test [1] (peptide 1 mM), 703.2 arbitrary units.
For “Ac-Arg-Arg-Asn-Tyr-Val-Pro-Arg-Arg-Asn-Tyr-NH2 (Ac-RRNYVPRRNY-NH2) [Compound 2512]”, in that order: 14.8 arbitrary units, 50.7 arbitrary units, 117.2 arbitrary units, 227.3 arbitrary units and 394.7 arbitrary units.
On to “Ac-Tyr-Asn-Arg-Arg-Gly-Gly-Gly-Ser-Ala-Val-Pro-Phe-Tyr-Ser-His-Ser-Tyr-Asn-Arg-Arg-NH2 (Ac-YNRRGGGSAVPFYSHSYNRR-NH2) [Compound 2496]”, for which the SPR respons was 67.7 arbitrary units in test [1] (peptide 25 uM); 155.9 arbitrary units in test [1] (peptide 100 uM); 358.1 arbitrary units in test [1] (peptide 250 uM); 738.6 arbitrary units in test [1] (peptide 500 uM); 1402 arbitrary units in test [1] (peptide 1 mM).
For the substance “Ac-Tyr-Asn-Arg-Arg-NH2 (Ac-YNRR-NH2) [Compound 2499]”, in test [1] (peptide 1 mM), the SPR respons amounted to 69.4 arbitrary units and the “SPR data normalised on Mw” value is 10.7.
